Laboratory results reported in patent publication US9696303.

What was measured:
[1] = target: HRP-labelled Concavalin A (UniProt P02866); assay: capillary displacement of HRP-labelled Concavalin A from immobilised yeast mannoprotein; platform of Example 3; HRP substrate, spectrophotometer
[2] = target: HRP-labelled Concavalin A (UniProt P02866); assay: capillary displacement of HRP-labelled Concavalin A from immobilised yeast mannoprotein; platform of Example 2; HRP substrate, spectrophotometer
[3] = target: HRP-labelled Concavalin A (UniProt P02866); assay: capillary displacement of HRP-labelled Concavalin A from immobilised yeast mannoprotein; platform of Example 4; HRP substrate, spectrophotometer

UniProt P02866, sequence (P02866 30-281 limits assumed): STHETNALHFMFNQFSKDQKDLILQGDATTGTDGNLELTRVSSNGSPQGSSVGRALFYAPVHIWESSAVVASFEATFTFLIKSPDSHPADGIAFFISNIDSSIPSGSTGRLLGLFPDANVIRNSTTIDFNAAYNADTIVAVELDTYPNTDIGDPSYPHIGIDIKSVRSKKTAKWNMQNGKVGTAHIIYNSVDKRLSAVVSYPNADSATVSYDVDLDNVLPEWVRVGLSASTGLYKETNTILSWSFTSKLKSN

Row | Substance | absorbance at 446-456 nm (absorbance (446 nm)) [1] | absorbance at 446-456 nm (absorbance (456 nm)) [2] | absorbance at 446-456 nm (absorbance (446 nm)) [3] | absorbance at 446-456 nm (absorbance (448.5 nm)) [1]
1 | polystyrene beads with immobilised yeast mannoprotein | 2.22 | 3 | > 4 | 
2 | yeast mannoprotein |  |  | 2.5 | 2.7
